± gives the standard deviation of the averaged measurements.
Test system: Sindbis virus TE/5'2J-GFP
Assay: percent infected (GFP+ in RFP+ ISG-expressing cells); higher = more infection (less antiviral activity)
Method: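 Confirmatory testing of 87 ISGs. Triplicate wells of BHK/HA-Zeo (control) or BHK/NZAP-Zeo (ZAP) cells were transduced with lentiviruses co-expressing a human ISG plus TagRFP, then infected 48 h later with SINV TE/5'2J-GFP (moi 5). The % GFP+ cells among RFP+ cells was measured by flow cytometry at 8 h post infection. Fluc lentivirus served as control. Three independent experiments.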

[1] = experiment: confirmatory screen 1, BHK/HA-Zeo (control)
[2] = experiment: confirmatory screen 1, BHK/NZAP-Zeo (ZAP)
[3] = experiment: confirmatory screen 2, BHK/HA-Zeo (control)
[4] = experiment: confirmatory screen 2, BHK/NZAP-Zeo (ZAP)
[5] = experiment: confirmatory screen 3, BHK/HA-Zeo (control)
[6] = experiment: confirmatory screen 3, BHK/NZAP-Zeo (ZAP)
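Note: Interferon-defective BHK-21 derivatives, ZAP line overexpressing the rat ZAP N-terminal zinc finger domain fused to Zeocin resistance, GFP scored within live singlet TagRFP+ cells.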

Sequence	percent infected [1]	percent infected [2]	percent infected [3]	percent infected [4]	percent infected [5]	percent infected [6]
MLRGISQLPAVATMSWVLLPVLWLIVQTQAIAIKQTPELTLHEIVCPKKLHILHKREIKNNQTEKHGKEERYEPEVQYQMILNGEEIILSLQKTKHLLGPDYTETLYSPRGEEITTKPENMEHCYYKGNILNEKNSVASISTCDGLRGYFTHHHQRYQIKPLKSTDEKEHAVFTSNQEEQDPANHTCGVKSTDGKQGPIRISRSLKSPEKEDFLRAQKYIDLYLVLDNAFYKNYNENLTLIRSFVFDVMNLLNVIYNTIDVQVALVGMEIWSDGDKIKVVPSASTTFDNFLRWHSSNLGKKIHDHAQLLSGISFNNRRVGLAASNSLCSPSSVAVIEAKKKNNVALVGVMSHELGHVLGMPDVPFNTKCPSGSCVMNQYLSSKFPKDFSTSCRAHFERYLLSQKPKCLLQAPIPTNIMTTPVCGNHLLEVGEDCDCGSPKECTNLCCEALTCKLKPGTDCGGDAPNHTTE [ADAMDEC1]	94 ± 2.1%	66.9 ± 6.3%	96.2 ± 0.17%	95.52 ± 0.43%	94.82 ± 0.19%	94.56 ± 0.34%
MLTELEKALNSIIDVYHKYSLIKGNFHAVYRDDLKKLLETECPQYIRKKGADVWFKELDINTDGAVNFQEFLILVIKMGVAAHKKSHEESHKE [S100A8]	80.1 ± 1.9%	54.4 ± 3.1%	91.3 ± 1.5%	92.37 ± 0.69%	82.1 ± 1.6%	89.4 ± 1%
MMAQSKANGSHYALTAIGLGMLVLGVIMAMWNLVPGFSAAEKPTAQGSNKTEVGGGILKSKTFSVAYVLVGAGVMLLLLSICLSIRDKRKQRQGEDLAHVQHPTGAGPHAQEEDSQEEEEEDEEAASRYYVPSYEEVMNTNYSEARGEEQNPRLSISLPSYESLTGLDETTPTSTRADVEASPGNPPDRQNSKLAKRLKPLKVRRIKSEKLHLKDFRINLPDKNVPPPSIEPLTPPPQYDEVQEKAPDTRPPD [TMEM51]	94.9 ± 1.4%	61.1 ± 4.6%	95.13 ± 0.15%	94.94 ± 0.49%	93.31 ± 0.41%	92.77 ± 0.37%
MMFRDQVGVLAGWFKGWNECEQTVALLSLLKRVSQTQARFLQLCLEHSLADCAELHVLEREANSPGIINQWQQESKDKVISLLLTHLPLLKPGNLDAKVEYMKLLPKILAHSIEHNQHIEESRQLLSYALIHPATSLEDRSALAMWLNHLEDRTSTSFGGQNRGRSDSVDYGQTHYYHQRQNSDDKLNGWQNSRDSGICINASNWQDKSMGCENGHVPLYSSSSVPTTINTIGTSTSTILSGQAHHSPLKRSVSLTPPMNVPNQPLGHGWMSHEDLRARGPQCLPSDHAPLSPQSSVASSGSGGSEHLEDQTTARNTFQEEGSGMKDVPAWLKSLRLHKYAALFSQMTYEEMMALTECQLEAQNVTKGARHKIVISIQKLKERQNLLKSLERDIIEGGSLRIPLQELHQMILTPIKAYSSPSTTPEARRREPQAPRQPSLMGPESQSPDCKDGAAATGATATPSAGASGGLQPHQLSSCDGELAVAPLPEGDLPGQFTRVMGKVCTQLLVSRPDEENISSYLQLIDKCLIHEAFTETQKKRLLSWKQQVQKLFRSFPRKTLLDISGYRQQRNRGFGQSNSLPTAGSVGGGMGRRNPRQYQIPSRNVPSARLGLLGTSGFVSSNQRNTTATPTIMKQGRQNLWFANPGGSNSMPSRTHSSVQRTRSLPVHTSPQNMLMFQQPEFQLPVTEPDINNRLESLCLSMTEHALGDGVDRTSTI [SAMD4A]	80.4 ± 0.93%	12.5 ± 0.52%	92.98 ± 0.71%	93.39 ± 0.29%	83.1 ± 1.3%	84.55 ± 0.77%
MNMTQARVLVAAVVGLVAVLLYASIHKIEEGHLAVYYRGGALLTSPSGPGYHIMLPFITTFRSVQTTLQTDEVKNVPCGTSGGVMIYIDRIEVVNMLAPYAVFDIVRNYTADYDKTLIFNKIHHELNQFCSAHTLQEVYIELFDQIDENLKQALQKDLNLMAPGLTIQAVRVTKPKIPEAIRRNFELMEAEKTKLLIAAQKQKVVEKEAETERKKAVIEAEKIAQVAKIRFQQKVMEKETEKRISEIEDAAFLAREKAKADAEYYAAHKYATSNKHKLTPEYLELKKYQAIASNSKIYFGSNIPNMFVDSSCALKYSDIRTGRESSLPSKEALEPSGENVIQNKESTG [ERLIN1]	94.6 ± 1.8%	79.2 ± 1.4%	95.84 ± 0.41%	94.53 ± 0.57%	91.74 ± 0.47%	91.63 ± 0.7%
MNTIVFNKLSGAVLFEDGGASERERGGRPYSGVLDSPHARPEVGIPDGPPLKDNLGLRHRRTGARQNGGKVRHKRQALQDMARPLKQWLYKHRDNPYPTKTEKILLALGSQMTLVQVSNWFANARRRLKNTVRQPDLSWALRIKLYNKYVQGNAERLSVSSDDSCSEDGENPPRTHMNEGGYNTPVHHPVIKSENSVIKAGVRPESRASEDYVAPPKYKSSLLNRYLNDSLRHVMATNTTMMGKTRQRNHSGSFSSNEFEEELVSPSSSETEGNFVYRTDTLENGSNKGESAANRKGPSKDDTYWKEINAAMALTNLAQGKDKLQGTTSCIIQKSSHIAEVKTVKVPLVQQF [MKX]	95 ± 2.1%	82.42 ± 0.67%	95.17 ± 0.2%	92.86 ± 0.56%	79 ± 1.7%	86.15 ± 0.099%
MNTRNRVVNSGLGASPASRPTRDPQDPSGRQGELSPVEDQREGLEAAPKGPSRESVVHAGQRRTSAYTLIAPNINRRNEIQRIAEQELANLEKWKEQNRAKPVHLVPRRLGGSQSETEVRQKQQLQLMQSKYKQKLKREESVRIKKEAEEAELQKMKAIQREKSNKLEEKKRLQENLRREAFREHQQYKTAEFLSKLNTESPDRSACQSAVCGPQSSTWKLPILPRDHSWARSWAYRDSLKAEENRKLQKMKDEQHQKSELLELKRQQQEQERAKIHQTEHRRVNNAFLDRLQGKSQPGGLEQSGGCWNMNSGNSWGI [EPSTI1]	96.8 ± 1.1%	68.2 ± 2.1%	96.8 ± 1.1%	95.946 ± 0.041%	94.88 ± 0.77%	94.41 ± 0.1%
MPGKKARKNAQPSPARAPAELEVECATQLRRFGDKLNFRQKLLNLISKLFCSGT [PMAIP1]	94.9 ± 1.1%	87.9 ± 2.1%	95.11 ± 0.24%	93.22 ± 0.27%	92.03 ± 0.31%	92.36 ± 0.16%
MPITRMRMRPWLEMQINSNQIPGLIWINKEEMIFQIPWKHAAKHGWDINKDACLFRSWAIHTGRYKAGEKEPDPKTWKANFRCAMNSLPDIEEVKDQSRNKGSSAVRVYRMLPPLTKNQRKERKSKSSRDAKSKAKRKSCGDSSPDTFSDGLSSSTLPDDHSSYTVPGYMQDLEVEQALTPALSPCAVSSTLPDWHIPVEVVPDSTSDLYNFQVSPMPSTSEATTDEDEEGKLPEDIMKLLEQSEWQPTNVDGKGYLLNEPGVQPTSVYGDFSCKEEPEIDSPGGDIGLSLQRVFTDLKNMDATWLDSLLTPVRLPSIQAIPCAP [IRF1]	67.2 ± 42%	10.7 ± 6.3%	61.6 ± 1.6%	1.14 ± 0.73%	29.2 ± 22%	0.16 ± 0.079%
MPRQLSAAAALFASLAVILHDGSQMRAKAFPETRDYSQPTAAATVQDIKKPVQQPAKQAPHQTLAARFMDGHITFQTAATVKIPTTTPATTKNTATTSPITYTLVTTQATPNNSHTAPPVTEVTVGPSLAPYSLPPTITPPAHTTGTSSSTVSHTTGNTTQPSNQTTLPATLSIALHKSTTGQKPVQPTHAPGTTAAAHNTTRTAAPASTVPGPTLAPQPSSVKTGIYQVLNGSRLCIKAEMGIQLIVQDKESVFSPRRYFNIDPNATQASGNCGTRKSNLLLNFQGGFVNLTFTKDEESYYISEVGAYLTVSDPETIYQGIKHAVVMFQTAVGHSFKCVSEQSLQLSAHLQVKTTDVQLQAFDFEDDHFGNVDECSSDYTIVLPVIGAIVVGLCLMGMGVYKIRLRCQSSGYQRI [LAMP3]	95.8 ± 1.7%	52.1 ± 5.6%	97.55 ± 0.14%	96.16 ± 0.23%	86.4 ± 2.6%	89.93 ± 0.19%
MPSLWDRFSSSSTSSSPSSLPRTPTPDRPPRSAWGSATREEGFDRSTSLESSDCESLDSSNSGFGPEEDTAYLDGVSLPDFELLSDPEDEHLCANLMQLLQESLAQARLGSRRPARLLMPSQLVSQVGKELLRLAYSEPCGLRGALLDVCVEQGKSCHSVGQLALDPSLVPTFQLTLVLRLDSRLWPKIQGLFSSANSPFLPGFSQSLTLSTGFRVIKKKLYSSEQLLIEEC [DDIT4]	95.2 ± 1.2%	76.2 ± 2.5%	96.4 ± 0.11%	94.99 ± 0.17%	94.1 ± 0.29%	92.99 ± 0.24%
MPVERMRMRPWLEEQINSNTIPGLKWLNKEKKIFQIPWMHAARHGWDVEKDAPLFRNWAIHTGKHQPGVDKPDPKTWKANFRCAMNSLPDIEEVKDKSIKKGNNAFRVYRMLPLSERPSKKGKKPKTEKEDKVKHIKQEPVESSLGLSNGVSDLSPEYAVLTSTIKNEVDSTVNIIVVGQSHLDSNIENQEIVTNPPDICQVVEVTTESDEQPVSMSELYPLQISPVSSYAESETTDSVPSDEESAEGRPHWRKRNIEGKQYLSNMGTRGSYLLPGMASFVTSNKPDLQVTIKEESNPVPYNSSWPPFQDLPLSSSMTPASSSSRPDRETRASVIKKTSDITQARVKSC [IRF2]	81 ± 3.7%	2.58 ± 0.4%	94.34 ± 0.74%	60.4 ± 1.6%	89.4 ± 1.2%	39.2 ± 2.8%
MQEGELAISPISPVAAMPPLGTHVQARCEAQINLLGEGGICKLPGRLRIQPALWSREDVLHWLRWAEQEYSLPCTAEHGFEMNGRALCILTKDDFRHRAPSSGDVLYELLQYIKTQRRALVCGPFFGGIFRLKTPTQHSPVPPEEVTGPSQMDTRRGHLLQPPDPGLTSNFGHLDDPGLARWTPGKEESLNLCHCAELGCRTQGVCSFPAMPQAPIDGRIADCRLLWDYVYQLLLDTRYEPYIKWEDKDAKIFRVVDPNGLARLWGNHKNRVNMTYEKMSRALRHYYKLNIIKKEPGQKLLFRFLKTPGKMVQDKHSHLEPLESQEQDRIEFKDKRPEISP [ETV7]	95.31 ± 0.45%	67.2 ± 4%	95.82 ± 0.54%	95.28 ± 0.2%	93 ± 1.6%	93.56 ± 0.55%
